According to paper PMC7771633 (Cell, 2020):

B1: HENV-26, human monoclonal antibody, IgG (antibody, V domains shown)
VH: EVQLLESGGGLIQPGGSLRLSCAASGFTFSRFTMSWVRQPPGKGPEWVSGISGSGGHTYYADSVKGRFTISRDNSKNTLYLQMNSLKAEDTAVYYCAKDGFVGQQLMRRGPWWFDPWGQGTLVTVSS
VL: SYVLTQPPSVSVAPGQTARISCGGNNIGNKGVHWYQQKPGQAPVVVVYDDSDRPSGIPERFSGSNSGNTATLTISRVEAGDEADYYCQVWDSSSDHVVFGGGTKLTVL
B2: HENV-32, human monoclonal antibody, IgG (antibody, V domains shown)
VH: QVQLVQSGAEVKKPGSSVKVSCKVSGGIFNRETINWVRQAPGQGLEWMGRITPIVDVPNYPRKFRGRVTITADKSTSTVYMELSGLRFEDTAIYFCARFRGHNYFDPWGQGTLVTVSS
VL: SYVLTQPPSVSVAPGQTARITCGGNNIGGKSVHWYQQKPGQAPVLVVYDDRDRPSGIPERFSGSNSGDTASLTISRVDAGDEADYFCQVWDNASDEAVFGGGTKLTVL
B3: HENV-32 Fab (Fab, V domains shown)
VH: B2 VH
VL: B2 VL

Key:
[1] = molecular target: T1, HeV-RBP head domain (Hendra virus receptor binding protein, residues 185 – 604) (Hendra virus, UniProt O89343); experiment: ELISA
T1 sequence (O89343 185-604): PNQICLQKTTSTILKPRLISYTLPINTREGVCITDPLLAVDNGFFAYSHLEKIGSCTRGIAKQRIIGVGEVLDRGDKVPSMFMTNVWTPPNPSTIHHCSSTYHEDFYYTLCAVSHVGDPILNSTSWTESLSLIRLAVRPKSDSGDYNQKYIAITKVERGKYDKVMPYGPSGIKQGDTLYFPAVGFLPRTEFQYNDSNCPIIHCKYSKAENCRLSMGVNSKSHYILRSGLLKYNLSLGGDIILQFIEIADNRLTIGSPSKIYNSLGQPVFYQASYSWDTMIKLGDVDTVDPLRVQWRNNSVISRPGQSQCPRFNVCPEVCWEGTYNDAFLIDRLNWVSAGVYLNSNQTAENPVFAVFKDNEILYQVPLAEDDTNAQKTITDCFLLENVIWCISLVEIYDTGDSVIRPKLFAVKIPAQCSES

[2] = molecular target: full-length NiVB RBP expressed on the surface of mammalian cells (Nipah virus, strain Bangladesh, UniProt Q4VCP5, strain); experiment: flow cytometry on cells
[3] = molecular target: full-length HeV-RBP expressed on the surface of mammalian cells (Hendra virus, UniProt O89343); experiment: cell-based or functional assay
full-length HeV-RBP expressed on the surface of mammalian cells, sequence (O89343 whole entry): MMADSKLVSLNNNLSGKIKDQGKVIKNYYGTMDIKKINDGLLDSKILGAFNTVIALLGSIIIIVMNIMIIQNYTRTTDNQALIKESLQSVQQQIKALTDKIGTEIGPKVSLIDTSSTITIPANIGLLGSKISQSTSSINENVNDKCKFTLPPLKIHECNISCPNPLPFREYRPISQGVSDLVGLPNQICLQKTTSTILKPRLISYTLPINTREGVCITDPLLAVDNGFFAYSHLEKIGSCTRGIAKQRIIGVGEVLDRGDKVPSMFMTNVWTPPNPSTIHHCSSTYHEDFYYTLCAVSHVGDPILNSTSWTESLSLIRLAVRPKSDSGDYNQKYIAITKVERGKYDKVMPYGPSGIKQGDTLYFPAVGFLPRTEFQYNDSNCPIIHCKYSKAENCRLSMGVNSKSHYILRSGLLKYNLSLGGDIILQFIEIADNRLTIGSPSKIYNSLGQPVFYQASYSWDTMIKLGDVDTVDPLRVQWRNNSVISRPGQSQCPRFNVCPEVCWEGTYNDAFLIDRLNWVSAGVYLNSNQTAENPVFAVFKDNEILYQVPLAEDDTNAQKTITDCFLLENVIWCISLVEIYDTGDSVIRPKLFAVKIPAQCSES

[4] = molecular target: full-length NiVM RBP expressed on the surface of mammalian cells (Nipah virus, strain Malaysia, UniProt Q9IH62); experiment: cell-based or functional assay
full-length NiVM RBP expressed on the surface of mammalian cells, sequence (Q9IH62 whole entry, the tested form may be a part): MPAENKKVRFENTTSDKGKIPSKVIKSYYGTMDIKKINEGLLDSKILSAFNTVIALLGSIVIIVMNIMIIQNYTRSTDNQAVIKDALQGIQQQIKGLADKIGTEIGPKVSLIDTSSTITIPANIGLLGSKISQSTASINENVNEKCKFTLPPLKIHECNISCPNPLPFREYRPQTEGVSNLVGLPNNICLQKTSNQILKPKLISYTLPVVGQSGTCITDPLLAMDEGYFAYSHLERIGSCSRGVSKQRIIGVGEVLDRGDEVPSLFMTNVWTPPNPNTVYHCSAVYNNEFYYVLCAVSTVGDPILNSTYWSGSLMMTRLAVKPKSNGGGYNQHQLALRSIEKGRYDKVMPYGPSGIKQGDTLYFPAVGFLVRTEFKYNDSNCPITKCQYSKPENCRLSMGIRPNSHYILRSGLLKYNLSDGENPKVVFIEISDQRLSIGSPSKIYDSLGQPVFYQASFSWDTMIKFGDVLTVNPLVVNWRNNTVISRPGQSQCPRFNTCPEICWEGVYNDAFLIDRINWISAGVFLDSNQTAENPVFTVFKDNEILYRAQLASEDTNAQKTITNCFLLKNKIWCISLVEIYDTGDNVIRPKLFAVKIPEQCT

[5] = molecular target: T1, HeV-RBP head domain (Hendra virus …); experiment: BLI

Binder	Area under the curve [1]	binding result [2]	IC50 of neutralization of HeV (plaque reduction assay) [3] [mg/L]	IC50 of neutralization of NiVM (plaque reduction assay) [4] [mg/L]	Kd [5] [nM]
B1	5.39	binds			
B2	3.71		0.27	0.31	
B3					2.1
